Reference: the supplement of paper PMC5998384

Tests used:
[1] = test system: HeLa Kyoto; assay: solubility change mitosis vs G1/S (difference of NP-40 vs SDS log2 ratios) (log2 ratio difference); higher = more soluble in mitosis
[2] = test system: HeLa Kyoto; assay: solubility in G1/S (NP-40 vs SDS abundance) (log2 ratio); higher = more soluble; conditions: cell cycle stage: G1/S
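Wherever solubility change mitosis vs G1/S (difference of NP-40 vs SDS log2 ratios) is given: synchronized HeLa Kyoto cells (double thymidine block for G1/S, nocodazole release for mitosis), protein amounts in NP-40 versus SDS lysates quantified by mass spectrometry, three biological replicates.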
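Wherever solubility in G1/S (NP-40 vs SDS abundance) is given: HeLa Kyoto cells arrested at G1/S by double thymidine block, proteins quantified by TMT10plex mass spectrometry in mild NP-40 versus SDS extracts, three biological replicates.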

Row | Substance | solubility change mitosis (log2) [1] | solubility in G1/S (log2) [2]
1 | MTEESEETVLYIEHRYVCSECNQLYGSLEEVLMHQNSHVPQQHFELVGVADPGVTVATDTASGTGLYQTLVQESQYQCLECGQLLMSPSQLLEHQELHLKMMAPQEAVPAEPSPKAPPLSSSTIHYECVDCKALFASQELWLNHRQTHLRATPTKAPAPVVLGSPVVLGPPVGQARVAVEHSYRKAEEGGEGATVPSAAATTTEVVTEVELLLYKCSECSQLFQLPADFLEHQATHFPAPVPESQEPALQQEVQASSPAEVPVSQPDPLPASDHSYELRNGEAIGRDRRGRRARRNNSGEAGGAATQELFCSACDQLFLSPHQLQQHLRSHREGVFKCPLCSRVFPSPSSLDQHLGDHSSESHFLCVDCGLAFGTEALLLAHRRAHTPNPLHSCPCGKTFVNLTKFLYHRRTHGVGGVPLPTTPVPPEEPVIGFPEPAPAETGEPEAPEPPVSEETSAGPAAPGTYRCLLCSREFGKALQLTRHQRFVHRLERRHKCSICGKMFKKKSHVRNHLRTHTGERPFPCPDCSKPFNSPANLARHRLTHTGERPYRCGDCGKAFTQSSTLRQHRLVHAQHFPYRCQECGVRFHRPYRLLMHRYHHTGEYPYKCRECPRSFLLRRLLEVHQLVVHAGRQPHRCPSCGAAFPSSLRLREHRCAAAAAQAPRRFECGTCGKKVGSAARLQAHEAAHAAAGPGEVLAKEPPAPRAPRATRAPVASPAALGSTATASPAAPARRRGLECSECKKLFSTETSLQVHRRIHTGERPYPCPDCGKAFRQSTHLKDHRRLHTGERPFACEVCGKAFAISMRLAEHRRIHTGERPYSCPDCGKSYRSFSNLWKHRKTHQQQHQAAVRQQLAEAEAAVGLAVMETAVEALPLVEAIEIYPLAEAEGVQISG [ZNF574] | 0.212 | -0.386
2 | MTSAVVDSGGTILELSSNGVENQEESEKVSEYPAVIVEPVPSARLEQGYAAQVLVYDDETYMMQDVAEEQEVETENVETVEASVHSSNAHCTDKTIEAAEALLHMESPTCLRDSRSPVEVFVPPCVSTPEFIHAAMRPDVITETVVEVSTEESEPMDTSPIPTSPDSHEPMKKKKVGRKPKTQQSPISNGSPELGIKKKPREGKGNTTYLWEFLLDLLQDKNTCPRYIKWTQREKGIFKLVDSKAVSKLWGKHKNKPDMNYETMGRALRYYYQRGILAKVEGQRLVYQFKDMPKNIVVIDDDKSETCNEDLAGTTDEKSLERVSLSAESLLKAASSVRSGKNSSPINCSRAEKGVARVVNITSPGHDASSRSPTTTASVSATAAPRTVRVAMQVPVVMTSLGQKISTVAVQSVNAGAPLITSTSPTTATSPKVVIQTIPTVMPASTENGDKITMQPAKIITIPATQLAQCQLQTKSNLTGSGSINIVGTPLAVRALTPVSIAHGTPVMRLSMPTQQASGQTPPRVISAVIKGPEVKSEAVAKKQEHDVKTLQLVEEKPADGNKTVTHVVVVSAPSAIALPVTMKTEGLVTCEK [ELF2] | 0.0877 | 0.284
3 | MTSPSPRIQIISTDSAVASPQRIQIVTDQQTGQKIQIVTAVDASGSPKQQFILTSPDGAGTGKVILASPETSSAKQLIFTTSDNLVPGRIQIVTDSASVERLLGKTDVQRPQVVEYCVVCGDKASGRHYGAVSCEGCKGFFKRSVRKNLTYSCRSNQDCIINKHHRNRCQFCRLKKCLEMGMKMESVQSERKPFDVQREKPSNCAASTEKIYIRKDLRSPLIATPTFVADKDGARQTGLLDPGMLVNIQQPLIREDGTVLLATDSKAETSQGALGTLANVVTSLANLSESLNNGDTSEIQPEDQSASEITRAFDTLAKALNTTDSSSSPSLADGIDTSGGGSIHVISRDQSTPIIEVEGPLLSDTHVTFKLTMPSPMPEYLNVHYICESASRLLFLSMHWARSIPAFQALGQDCNTSLVRACWNELFTLGLAQCAQVMSLSTILAAIVNHLQNSIQEDKLSGDRIKQVMEHIWKLQEFCNSMAKLDIDGYEYAYLKAIVLFSPDHPGLTSTSQIEKFQEKAQMELQDYVQKTYSEDTYRLARILVRLPALRLMSSNITEELFFTGLIGNVSIDSIIPYILKMETAEYNGQITGASL [NR2C2] | 0.0297 | -0.109
4 | MVAMAAGPSGCLVPAFGLRLLLATVLQAVSAFGAEFSSEACRELGFSSNLLCSSCDLLGQFNLLQLDPDCRGCCQEEAQFETKKLYAGAILEVCGUKLGRFPQVQAFVRSDKPKLFRGLQIKYVRGSDPVLKLLDDNGNIAEELSILKWNTDSVEEFLSEKLERI [SEP15] | -0.028 | 0.305
5 | MVGPGPTAAAAVEERQRKLQEYLAAKGKLKSQNTKPYLKSKNNCQNQPPSKSTIRPKNDVTNHVVLPVKPKRSISIKLQPRPPNTAGSQKPKLEPPKLLGKRLTSECVSSNPYSKPSSKSFQQCEAGSSTTGELSRKPVGSLNIEQLKTTKQQLTDQGNGKCIDFMNNIHVENESLDNFLKETNKENLLDILTEPERKPDPKLYTRSKPKTDSYNQTKNSLVPKQALGKSSVNSAVLKDRVNKQFVGETQSRTFPVKSQQLSRGADLARPGVKPSRTVPSHFIRTLSKVQSSKKPVVKNIKDIKVNRSQYERPNETKIRSYPVTEQRVKHTKPRTYPSLLQGEYNNRHPNIKQDQKSSQVCIPQTSCVLQKSKAISQRPNLTVGRFNSAIPSTPSIRPNGTSGNKHNNNGFQQKAQTLDSKLKKAVPQNHFLNKTAPKTQADVTTVNGTQTNPNIKKKATAEDRRKQLEEWQKSKGKTYKRPPMELKTKRKVIKEMNISFWKSIEKEEEEKKAQLELSSKINNTLTECLNLIEGGVPSNEILNILSSIPEAEKFAKFWICKAKLLASKGTFDVIGLYEEAIKNGATPIQELRKVVLNILQDSNRTTEGITSDSLVAETSITSVEELAKKMESVKSCLSPKEREQVTATPRIAKAEQHNYPGIKLQIGPIPRINGMPEVQDMKFITPVRRSSRIERAVSRYPEMLQEHDLVVASLDELLEVEETKCFIFRRNEALPVTLGFQTPES [CKAP2L] | 0.95 | -1.14
6 | MVPAAGRRPPRVMRLLGWWQVLLWVLGLPVRGVEVAEESGRLWSEEQPAHPLQVGAVYLGEEELLHDPMGQDRAAEEANAVLGLDTQGDHMVMLSVIPGEAEDKVSSEPSGVTCGAGGAEDSRCNVRESLFSLDGAGAHFPDREEEYYTEPEVAESDAAPTEDSNNTESLKSPKVNCEERNITGLENFTLKILNMSQDLMDFLNPNGSDCTLVLFYTPWCRFSASLAPHFNSLPRAFPALHFLALDASQHSSLSTRFGTVAVPNILLFQGAKPMARFNHTDRTLETLKIFIFNQTGIEAKKNVVVTQADQIGPLPSTLIKSVDWLLVFSLFFLISFIMYATIRTESIRWLIPGQEQEHVE [TXNDC15] | -0.0906 | 0.719
7 | MVPPVQVSPLIKLGRYSALFLGVAYGATRYNYLKPRAEEERRIAAEEKKKQDELKRIARELAEDDSILK [ATP5I] | 0.197 | -0.147
8 | MVSDEDELNLLVIVVDANPIWWGKQALKESQFTLSKCIDAVMVLGNSHLFMNRSNKLAVIASHIQESRFLYPGKNGRLGDFFGDPGNPPEFNPSGSKDGKYELLTSANEVIVEEIKDLMTKSDIKGQHTETLLAGSLAKALCYIHRMNKEVKDNQEMKSRILVIKAAEDSALQYMNFMNVIFAAQKQNILIDACVLDSDSGLLQQACDITGGLYLKVPQMPSLLQYLLWVFLPDQDQRSQLILPPPVHVDYRAACFCHRNLIEIGYVCSVCLSIFCNFSPICTTCETAFKISLPPVLKAKKKKLKVSA [GTF2H3] | 0.117 | -0.126
9 | MVVSKMNKDAQMRAAINQKLIETGERERLKELLRAKLIECGWKDQLKAHCKEVIKEKGLEHVTVDDLVAEITPKGRALVPDSVKKELLQRIRTFLAQHASL [ENY2] | 0.636 | -0.203
10 | MWMTPKRSKMEVDEALVFRPEWTQRYLVVEPPEGDGALCLVCRRLIVATRERDVRRHYEAEHEYYERYVADGERAALVERLRQGDLPVASFTPEERAARAGLGLCRLLALKGRGWGEGDFVYQCMEVLLREVLPEHVSVLQGVDLSPDITRQRILSIDRNLRNQLFNRARDFKAYSLALDDQAFVAYENYLLVFIRGVGPELEVQEDLLTIINLTHHFSVGALMSAILESLQTAGLSLQRMVGLTTTHTLRMIGENSGLVSYMREKAVSPNCWNVIHYSGFLHLELLSSYDVDVNQIINTISEWIVLIKTRGVRRPEFQTLLTESESEHGERVNGRCLNNWLRRGKTLKLIFSLRKEMEAFLVSVGATTVHFSDKQWLCDFGFLVDIMEHLRELSEELRVSKVFAAAAFDHICTFEVKLNLFQRHIEEKNLTDFPALREVVDELKQQNKEDEKIFDPDRYQMVICRLQKEFERHFKDLRFIKKDLELFSNPFNFKPEYAPISVRVELTKLQANTNLWNEYRIKDLGQFYAGLSAESYPIIKGVACKVASLFDSNQICEKAFSYLTRNQHTLSQPLTDEHLQALFRVATTEMEPGWDDLVRERNESNP [EPM2AIP1] | 0.291 | -0.485
11 | MYFLSGWPKRLLCPLGSPAEAPFHVQSDPQRAFFAVLAAARLSIWYSRPSVLIVTYKEPAKSSTQFGSYKQAEWRPDSTMIAVSTANGYILFFHITSTRGDKYLYEPVYPKGSPQMKGTPHFKEEQCAPALNLEMRKILDLQAPIMSLQSVLEDLLVATSDGLLHLIHWEGMTNGRKAINLCTVPFSVDLQSSRVGSFLGFTDVHIRDMEYCATLDGFAVVFNDGKVGFITPVSSRFTAEQLHGVWPQDVVDGTCVAVNNKYRLMAFGCVSGSVQVYTIDNSTGAMLLSHKLELTAKQYPDIWNKTGAVKLMRWSPDNSVVIVTWEYGGLSLWSVFGAQLICTLGGDFAYRSDGTKKDPLKINSMSWGAEGYHLWVISGFGSQNTEIESDLRSVVKQPSILLFQFIKSVLTVNPCMSNQEQVLLQGEDRLYLNCGEASQTQNPRSSSTHSEHKPSREKSPFADGGLESQGLSTLLGHRHWHVVQISSTYLESNWPIRFSAIDKLGQNIAVVGKFGFAHYSLLTKKWKLFGNITQEQNMIVTGGLAWWNDFMVLACYNINDRQEELRVYLRTSNLDNAFAHVTKAQAETLLLSVFQDMVIVFRADCSICLYSIERKSDGPNTTAGIQVLQEVSMSRYIPHPFLVVSVTLTSVSTENGITLKMPQQARGAESIMLNLAGQLIMMQRDRSGPQIREKDSNPNNQRKLLPFCPPVVLAQSVENVWTTCRANKQKRHLLEALWLSCGGAGMKVWLPLFPRDHRKPHSFLSQRIMLPFHINIYPLAVLFEDALVLGAVNDTLLYDSLYTRNNAREQLEVLFPFCVVERTSQIYLHHILRQLLVRNLGEQALLLAQSCATLPYFPHVLELMLHEVLEEEATSREPIPDPLLPTVAKFITEFPLFLQTVVHCARKTEYALWNYLFAAVGNPKDLFEECLMAQDLDTAASYLIILQNMEVPAVSRQHATLLFNTALEQGKWDLCRHMIRFLKAIGSGESETPPSTPTAQEPSSSGGFEFFRNRSISLSQSAENVPASKFSLQKTLSMPSGPSGKRWSKDSDCAENMYIDMMLWRHARRLLEDVRLKDLGCFAAQLGFELISWLCKERTRAARVDNFVIALKRLHKDFLWPLPIIPASSISSPFKNGKYRTVGEQLLKSQSADPFLNLEMDAGISNIQRSQSWLSNIGPTHHEIDTASSHGPQMQDAFLSPLSNKGDECSIGSATDLTESSSMVDGDWTMVDENFSTLSLTQSELEHISMELASKGPHKSQVQLRYLLHIFMEAGCLDWCIVIGLILRESSIINQILVITQSSEVDGEMLQNIKTGLHAVDRWASTDCPGYKPFLNIIKPQLQKLSEITEEQVQPDAFQPITMGKTPEQTSPRAEESRGSSSHGSIPQGEVGSSNMVSRKEEDTAQAEEEEPFQDGTYDCSVS [RIC1] | 0.129 | -0.168
12 | MYO9A | 0.00755 | -0.102
13 | MYTITKGPSKLVAQRRTGPTQQQVEGRLGELLKCRQPAPPTSQPPRAQPFAQPPGPWPLSSPGPRLVFNRVNGRRAPSTSPSFEGTQETYTVAHEENVRFVSEAWQQVQQQLDGGPAGEGGPRPVQYVERTPNPRLQNFVPIDLDEWWAQQFLARITSCS [FAM195A] | 0.195 | -0.457
